Here are results for one molecule from article PMC9784774 (2022).

The assay has as its target T1, recombinant gH/gL/UL128/UL130/UL131A pentamer (wild type) (human cytomegalovirus | human …).
T1 chain 1: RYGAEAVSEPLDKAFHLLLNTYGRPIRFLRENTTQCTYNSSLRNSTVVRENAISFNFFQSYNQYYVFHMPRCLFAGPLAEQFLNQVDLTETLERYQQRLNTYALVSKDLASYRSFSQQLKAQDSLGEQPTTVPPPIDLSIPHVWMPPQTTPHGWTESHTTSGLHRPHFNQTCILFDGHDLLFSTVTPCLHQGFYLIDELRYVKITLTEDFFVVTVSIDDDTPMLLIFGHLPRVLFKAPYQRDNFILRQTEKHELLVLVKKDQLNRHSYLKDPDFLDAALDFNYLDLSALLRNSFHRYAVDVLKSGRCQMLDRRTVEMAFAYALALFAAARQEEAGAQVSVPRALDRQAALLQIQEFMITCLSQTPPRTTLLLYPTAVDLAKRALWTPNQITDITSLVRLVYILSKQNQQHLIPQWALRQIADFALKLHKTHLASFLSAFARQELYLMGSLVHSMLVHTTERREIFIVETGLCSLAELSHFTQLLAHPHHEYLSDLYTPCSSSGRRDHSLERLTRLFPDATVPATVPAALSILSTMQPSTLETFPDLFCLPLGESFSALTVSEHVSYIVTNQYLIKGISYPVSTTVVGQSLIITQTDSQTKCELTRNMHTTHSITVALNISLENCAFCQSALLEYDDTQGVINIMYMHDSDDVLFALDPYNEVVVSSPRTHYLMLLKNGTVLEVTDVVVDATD
T1 chain 2: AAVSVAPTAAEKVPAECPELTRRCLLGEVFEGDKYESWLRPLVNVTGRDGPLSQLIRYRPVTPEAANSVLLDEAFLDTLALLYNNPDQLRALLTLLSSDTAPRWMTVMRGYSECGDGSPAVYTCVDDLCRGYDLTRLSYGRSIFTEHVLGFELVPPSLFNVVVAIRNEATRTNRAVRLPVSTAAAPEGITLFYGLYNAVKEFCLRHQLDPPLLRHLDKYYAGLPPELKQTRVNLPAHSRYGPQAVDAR
T1 chain 3: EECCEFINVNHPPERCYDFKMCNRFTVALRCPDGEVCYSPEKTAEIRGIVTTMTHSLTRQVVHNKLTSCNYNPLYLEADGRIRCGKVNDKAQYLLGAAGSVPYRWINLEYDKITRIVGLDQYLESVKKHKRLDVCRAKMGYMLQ
T1 chain 4: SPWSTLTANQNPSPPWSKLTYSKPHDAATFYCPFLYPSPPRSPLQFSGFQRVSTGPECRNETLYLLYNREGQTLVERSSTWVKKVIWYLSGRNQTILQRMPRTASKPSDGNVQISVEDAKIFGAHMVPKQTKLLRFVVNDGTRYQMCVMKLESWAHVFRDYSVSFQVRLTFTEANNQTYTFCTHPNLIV
T1 chain 5: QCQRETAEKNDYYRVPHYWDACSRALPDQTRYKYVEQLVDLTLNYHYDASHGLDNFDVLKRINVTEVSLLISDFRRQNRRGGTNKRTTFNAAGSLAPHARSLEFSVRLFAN
Description: SPR. Background: SPR reads the build-up and loss of mass on a sensor chip optically.

B1: MAb 9I6 (antibody, V domains shown)
VH: EVQLVQSGAEVKKPGESLKISCRESGDTFPAYWIAWVRQMPGKGLEWMGIIYPIDSETTYSPSFQGQVTISADKSINTAYLQWSSLKASDSAIYYCARGTSTGLREAFHIWGQGTMVTVSS
VL: DVVMTQSPLSLAVTLGQPAYISCRSSQSLGYSDGNTYLNWFQQRPGQSPRRLIYEVSNRDSGVPDRFSGSGSGTDFTLKISRVEAEDVGTYYCMQGTHWPPMCSFGQGTKLEIK
Take B1: the koff was determined as 0.000151 s⁻¹.

What is called koff is the first-order rate constant of dissociation.
